Results reported in patent publication US20260234242A1 (HAINAN SIMCERE ZAIMING PHARMACEUTICAL, published 2026).
Each block holds one binder with its values, some of them ahead of it.

What was measured:
[1] = molecular target: T1, monkey CDH6 protein (cynoCDH6 ECD-his) (monkey (cyno), UniProt A0A2K5TW62 19-615); assay: ELISA, coated antigen
T1 construct: range 19-615; also called Cyno CDH6-his; not shown: his tag
T1 sequence: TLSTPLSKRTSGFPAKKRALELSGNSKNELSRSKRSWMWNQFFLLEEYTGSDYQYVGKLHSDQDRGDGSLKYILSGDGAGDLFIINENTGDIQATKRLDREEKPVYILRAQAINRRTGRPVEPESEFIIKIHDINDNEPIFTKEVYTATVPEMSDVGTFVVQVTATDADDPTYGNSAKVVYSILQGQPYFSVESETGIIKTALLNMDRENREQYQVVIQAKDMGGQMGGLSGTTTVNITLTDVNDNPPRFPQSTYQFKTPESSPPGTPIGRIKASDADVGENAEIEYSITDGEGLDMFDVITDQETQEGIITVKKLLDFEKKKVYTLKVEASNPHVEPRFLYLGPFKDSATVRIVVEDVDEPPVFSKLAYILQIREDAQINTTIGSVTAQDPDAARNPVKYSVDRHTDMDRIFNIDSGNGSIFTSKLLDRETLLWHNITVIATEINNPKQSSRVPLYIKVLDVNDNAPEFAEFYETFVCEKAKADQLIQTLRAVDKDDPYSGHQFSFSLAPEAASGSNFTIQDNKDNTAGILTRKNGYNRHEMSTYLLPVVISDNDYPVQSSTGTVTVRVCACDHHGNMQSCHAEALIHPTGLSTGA
Procedure: Human CDH6 protein (hCDH6 ECD-his, conventionally synthesized), monkey CDH6 protein (cynoCDH6 ECD-his, conventionally synthesized; the cynoCDH6 ECD sequence was derived from Uniprot #A0A2K5TW62 (19-615)), and murine CDH6 protein (mCDH6 ECD-his, conventionally synthesized; the mCDH6 ECD sequence was derived from Uniprot #P97326 (19-615)) were diluted with PBS to a final concentration of 1 μg/mL, and added to a 96-well ELISA plate at 100 μL/well. The plate was incubated at 4° C. overnight. The next day, the plate was washed 3 times with a plate washing solution (PBS+0.01% (v/v) Tween 20), and a blocking buffer (PBS+0.01% (v/v) Tween 20+2% (w/w) BSA) was added for blocking at room temperature for 2 h. The blocking buffer was discarded, and the plate was washed 3 times. The chimeric antibodies were diluted with 1% BSA+PBS (purchased from Cytiva, Cat. No. SH30264.01) and added to the 96-well plate at 50 μL/well. After incubation at 37° C. for 2 h, the plate was washed 3 times with a plate washing solution. […] The plate was incubated at 37° C. for 1 h and then washed 5 times with a plate washing solution. A TMB substrate (purchased from Seracare, Cat. No. 5120-0077) was added at 50 μL/well and incubated at room temperature for 10 min, then a stop solution (1.0 N HCl) was added at 50 μL/well. OD450 nm values were read using a microplate reader (Biotek). Analysis was performed by the GraphPad Prism software, data were fitted, and EC50 values were calculated. The chimeric antibodies tested all had strong binding to the human CDH6 protein, the monkey CDH6 protein, and the murine CDH6 protein.

[2] = molecular target: T2, human CDH6 on tumor cells (OVCAR3 cells, PA-1 cells) (human, UniProt P55285 54-790); assay: FACS, OVCAR3 cells, 4° C. arm of endocytosis assay, antibody diluted to 10 µg/mL
T2 sequence: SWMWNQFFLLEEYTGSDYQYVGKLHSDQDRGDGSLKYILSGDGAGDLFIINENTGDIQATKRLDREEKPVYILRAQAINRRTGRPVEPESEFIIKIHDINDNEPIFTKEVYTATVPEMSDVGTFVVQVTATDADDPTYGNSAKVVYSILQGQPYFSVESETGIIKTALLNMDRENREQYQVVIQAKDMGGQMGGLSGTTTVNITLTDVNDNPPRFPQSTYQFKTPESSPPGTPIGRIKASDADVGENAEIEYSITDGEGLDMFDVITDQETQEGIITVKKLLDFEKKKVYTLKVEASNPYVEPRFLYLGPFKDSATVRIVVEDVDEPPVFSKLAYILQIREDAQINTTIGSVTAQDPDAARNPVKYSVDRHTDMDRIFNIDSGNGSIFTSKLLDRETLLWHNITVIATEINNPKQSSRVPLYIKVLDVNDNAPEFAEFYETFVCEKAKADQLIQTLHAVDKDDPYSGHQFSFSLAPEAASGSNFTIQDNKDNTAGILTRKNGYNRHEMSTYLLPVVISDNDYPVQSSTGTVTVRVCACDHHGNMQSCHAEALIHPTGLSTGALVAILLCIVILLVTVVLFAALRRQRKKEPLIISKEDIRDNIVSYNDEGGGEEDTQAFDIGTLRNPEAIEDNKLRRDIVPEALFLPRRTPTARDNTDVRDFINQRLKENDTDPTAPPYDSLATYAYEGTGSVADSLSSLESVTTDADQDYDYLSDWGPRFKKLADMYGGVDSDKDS
Procedure: OVCAR3 cells were cultured until a confluence of 90% was reached, the medium was removed by pipetting, the cells were washed once with PBS, and then treated with an enzyme-free cell dissociation solution (Versene, purchased from Gibco, Cat. No. 15040-066) and the cells were collected. The cells were washed once with PBS, counted, resuspended to 2×10⁶ cells/mL in an FACS buffer (PBS+2% FBS), and then added to two 96-well plates at 50 μL/well. The chimeric antibodies were diluted with FACS buffer (PBS+2% FBS) to 10 μg/mL and separately added to the two 96-well plates at 50 μL/well, and the plates were incubated at 4° C. for 1 h. After the cells were washed 3 times with PBS, the cells were resuspended in an FACS buffer. One 96-well plate was incubated at 4° C. for 1 h, and the other 96-well plate was incubated at 37° C. for 1 h. […] After the plates were centrifuged and washed 2 times with PBS, the cells were resuspended in an FACS buffer. The mean fluorescence intensity (MFI) was measured using FACS Canton II (BD). The chimeric antibodies tested all had good endocytic activity.

- EC50 [1]: 0.023 nM
- Max OD450 [1]: 2.54 OD450
- MFI_4° C. [2]: 10600 MFI
B1: CHI-CDH6-1 (antibody, human IgG1, kappa, V domains shown)
VH: QVQLQQPGAELVRPGSSVKLSCKASGYTFTNYWMHWVKQRPIEGLEWIGDIDPSHSETHYTQKFKDKATLTVDKSSSTAYMQLSSLTSEDSAVYYCARGDLGRFDYWGQGTTLTVSS
VL: DIVLTQSPASLAVSLGQRATISCRASESVSIHGTHLMHWYQQKSGQPPKLLIYAASNLESGVPARFSGSGSETDFTFNIHPVEEEDAATYFCQQSFEDPWTFGGGTKLEIKR
notes: also called CHI-hCDH6-1; CH1-CDH6-1

- EC50 [1]: 0.022 nM
- Max OD450 [1]: 2.12 OD450
- MFI_4° C. [2]: 11100 MFI
B2: CHI-CDH6-2 (antibody, human IgG1, kappa, V domains shown)
VH: EVQLQQSGPELVKPGASVRISCKASGYTFTDYYMNWVKQSHGKSLEWIGDIDPNNANTTYNQKFKGKATLTVDKSSSTAYMELRSLTSEDSAVYSCASFGYDVEWFGYWGQGTLVTVSA
VL: QIVLTQSPALMSASPGEKVTMTCSASSSVSYMYWYQQKPRSSPKPWIYLTSNLASGVPARFSGSGSGTSYSLTISSMEAEDAATYYCQQWSSNPFTFGSGTKLEIKR
notes: also called chimeric antibody of murine CDH6-2

- EC50 [1]: 0.034 nM
- Max OD450 [1]: 2.23 OD450
- MFI_4° C. [2]: 9520 MFI
B4: CHI-CDH6-4 (antibody, human IgG1, kappa, V domains shown)
VH: QVQLQQSGPELVKPGASVKISCKASGYAFSNFWMNWVKQRPGKGLEWIGWIYPGDGDTNYNGKFKDKATLTADKSSSTAYIQLSSLTSEDSAVYFCARLYDAWGFFDYWGQGTTLTVSS
VL: QIVLTQSPAIMSASPGQKVTITCSASSSVNYMHWYQQKLGSSPKLWIYDKSKLAPGVPARFSGSGSGTSYSLTISSMEAEDAASYFCHQWSSYPPMTFGGGTKLEIKR
notes: also called CH1-CDH6-4; chimeric antibody of murine CDH6-4

- EC50 [1]: 0.178 nM
- Max OD450 [1]: 2.05 OD450
- MFI_4° C. [2]: 5580 MFI
B7: CHI-CDH6-7 (antibody, human IgG1, kappa, V domains shown)
VH: EVKLVESGGGLVKPGGSLKVSCAASGFTFSDHGMAWVRQAPGKGPEWVAFISNLAYSIYYADTVTGRFTISRENAKNTLYLEMSSLRSEDTAMYYCARVYVKWYFDVWGAGTTVTVSS
VL: DIQMTQSPASLSASVGETVTITCRASENIDSYLAWYQQKQGKSPQLLVFAATLLADGVPSRFSGSGSGTQYSLKINSLQSEDVARYYCQHYYSTPLTFGAGTKLELKR
notes: also called CH1-CDH6-7; chimeric antibody of murine CDH6-7

- EC50 [1]: 0.026 nM
- Max OD450 [1]: 2.12 OD450
- MFI_4° C. [2]: 10100 MFI
B8: CHI-CDH6-8 (antibody, human IgG1, kappa, V domains shown)
VH: EVQLQQSGPELVKPGDSVKMSCKASGYTFTDYYMAWIKQNHGKSLEWIGYIYPNNGGTDYNQKFRGKATLTVDKSSSAAYMELHSLTSEDSAVYYCAREIGTLYGDYYAMDYWGQGTSVTVSS
VL: DIQMTQSPASLSASVGETVTITCRASENIDSYLAWYQQKQGKSPQLLVYTATLLADGVPSRFSGSGSGTQYSLKINSLQSEDVARYYCQHYYSTPPTFGSGTKLEIKR
notes: also called chimeric antibody of murine CDH6-8

- EC50 [1]: 0.026 nM
- Max OD450 [1]: 2.26 OD450
- MFI_4° C. [2]: 10100 MFI
B10: CHI-CDH6-10 (antibody, human IgG1, kappa, V domains shown)
VH: QVQLQQPGAELVKPGTSVKMSCKASGYTFTSDWIAWVKQRPGQGLEWIGDIYPGSGRTHNNEKFNFKATLTVDTSSNTAYMQLSSLTSEDSAVYFCARPMLGRFDYWGQGTTLTVSS
VL: DIVLTQSPASLAVSLGQRATISCRASESVSIHGTHLMHWYQQKPGQPPKLLIYAASNLESGVPARFSGSGSETDFTLNIHPVEEEDAATYFCQQSFEDPFTFGSGTKLEIKR
notes: also called chimeric antibody of murine CDH6-10

More lines, now with the values behind:

B3: CHI-CDH6-3 (antibody, human IgG1, kappa, V domains shown)
VH: QVQLQQPGAELVKPGASVKLSCKASGYTFTSYWIHWVKQRPGQGLEWIGEINPSNGVTNCNENFKSKATLTVDKSSSTAYMQLSSLTSEDSAVYYCTIPNLLWWYFDVWGAGTTVTVSS
VL: DIQMTQSPASLSVSVGETVTITCRASENIYSNLAWYQQKQGKSPQLLVYEATNLADGVPSRFSGSGSGTQYSLKINSLQSEDFGSYYCQHFWGTLWTFGGGTKLEIKR
notes: also called CH1-CDH6-3; chimeric antibody of murine CDH6-3
- EC50 [1]: 0.041 nM
- Max OD450 [1]: 2.64 OD450
- MFI_4° C. [2]: 9280 MFI

B5: CHI-CDH6-5 (antibody, human IgG1, kappa, V domains shown)
VH: QVQLQQSGAELVRPGTSVKMSCKAAEYTFTNYWIGWVKQRPGHGLEWIGDLYPGGDHANYNEKFEGKATLTADTSSSTAYMQLSSLTSEDSAIYYCARGMLTTGFDSWGQGTTLTVSS
VL: DIVMSQSPSSLAVSAGEKVTMSCKSSQSLFNSRTRKNYLAWYQQKPGQSPKLLIYWASTRESGVPDRFTGSGSGTDFTLTISSVQAEDLAVYYCKQSYYLRTFGGGTKLEIKR
notes: also called CH1-CDH6-5; chimeric antibody of murine CDH6-5
- EC50 [1]: 0.046 nM
- Max OD450 [1]: 1.96 OD450
- MFI_4° C. [2]: 8810 MFI

B6: CHI-CDH6-6 (antibody, human IgG1, kappa, V domains shown)
VH: EVQLQQSGPELVKPGDSVKMSCKASGYTFTDYYMAWVRQSHRKSLEWIGYIFPNSGGTDYSQKFKGKATLTVDKSSSTVYMELHSLTSEDSAVYYCARELGADYGDYYAMDHWGQGTSVSVSS
VL: DIQMTQSPASLSASVGETVTITCRASENIDSYLAWYQQKQGKSPQLLVYSATLLADGVPSRFSGSGSGTQYSLKINSLKSEDVARYYCQHYYRTPPTFGSGTKLEIKR
notes: also called CHI-hCDH6-6; chimeric antibody of murine CDH6-6
- EC50 [1]: 0.03 nM
- Max OD450 [1]: 2.24 OD450
- MFI_4° C. [2]: 9930 MFI

B9: CHI-CDH6-9 (antibody, human IgG1, kappa, V domains shown)
VH: QVQLQQPGAELVKPGASVKLSCKASGYTFTGYWMHWVRQRPGQGLEWIGEINPNNGGTNCNEQFKNKATLTVDKSSSTAYMQLSSLTSEDSAVFYCTISFGNYLFFDVWGAGTTVTVSS
VL: DIQMTQSPASLAASVGETITITCQASENIYFSLAWYQQKQGKSPQLLIYNANTLEDGVPSRFVGSGSGTQYSMKINSIQPEDTATYFCDQTYDFPWTFGGGTKLEIKR
notes: also called chimeric antibody of murine CDH6-9
- EC50 [1]: 0.026 nM
- Max OD450 [1]: 2.78 OD450
- MFI_4° C. [2]: 11000 MFI

B11: CHI-CDH6-11 (antibody, human IgG1, kappa, V domains shown)
VH: QIQLQQSGPELVKPGASVRISCKASGYTFTDYYITWVKLRPGQGLEWIGWIYPGSVNIKYNEKFKGKATLTVDTSSSTAYMQLNSLTSEDSAVYFCARGGYSWFPYWGQGTLVTVSA
VL: NIVMTQSPKSMSMSVGERVTLSCKASENVHTYVSWYQQKPEQSPKLLFYGASTRNTGVPDRFTGSGSATDFTLTISSVQAEDLADYYCGQSYSYPYTFGSGTKLEIKR
notes: also called chimeric antibody of murine CDH6-11
- EC50 [1]: 0.032 nM
- Max OD450 [1]: 2.32 OD450
- MFI_4° C. [2]: 10400 MFI
